Data as given in patent US20230135471A1, “UBIQUITIN VARIANTS WITH IMPROVED AFFINITY FOR 53BP1” (Integrated DNA Technologies, Inc., priority 2021, published 2023).
Values belong to the substance of their own block, whether it stands above or below them.

How the values were obtained:
[1] = biological target: T1, fragment of 53BP1 (a.a. 1221-1718) (Homo sapiens, UniProt Q12888); assay: BACTH two-hybrid pooled screen in E. coli, FACS sorting of GFP positive cells and NGS enrichment of i53 amino acid changes; type: cell-based; settings: i53 (SEQ ID NO: 2) background; for Rep 1 Enrichment / Rep 2 Enrichment: log2 enrichment of amino acid change in GFP positive vs input, normalised to synonymous changes; for Average Enrichment / Experiment 1 - high selection pressure Average Enrichment / Experiment 2-low selection pressure Average Enrichment: average of Rep 1 and Rep 2; for Average Enrichment: log2 enrichment; for Experiment 1 - high selection pressure Average Enrichment / Experiment 2-low selection pressure Average Enrichment: log 2 enrichment; for Experiment 1 - high selection pressure Rep 1 Enrichment / Experiment 2-low selection pressure Rep 1 Enrichment: replicate 1; for Experiment 1 - high selection pressure Rep 1 Enrichment / Experiment 1 - high selection pressure Rep 2 Enrichment / Experiment 2-low selection pressure Rep 1 Enrichment / Experiment 2-low selection pressure Rep 2 Enrichment: enrichment = log 2 of positive/input read count ratio normalised to synonymous changes; for Experiment 1 - high selection pressure Rep 2 Enrichment / Experiment 2-low selection pressure Rep 2 Enrichment: replicate 2
T1 construct: a fragment of 53BP1 (a.a. 1221-1718); expressed in transfected cells; host or cells: E. coli DHM1
T1 sequence (Q12888 1221-1718): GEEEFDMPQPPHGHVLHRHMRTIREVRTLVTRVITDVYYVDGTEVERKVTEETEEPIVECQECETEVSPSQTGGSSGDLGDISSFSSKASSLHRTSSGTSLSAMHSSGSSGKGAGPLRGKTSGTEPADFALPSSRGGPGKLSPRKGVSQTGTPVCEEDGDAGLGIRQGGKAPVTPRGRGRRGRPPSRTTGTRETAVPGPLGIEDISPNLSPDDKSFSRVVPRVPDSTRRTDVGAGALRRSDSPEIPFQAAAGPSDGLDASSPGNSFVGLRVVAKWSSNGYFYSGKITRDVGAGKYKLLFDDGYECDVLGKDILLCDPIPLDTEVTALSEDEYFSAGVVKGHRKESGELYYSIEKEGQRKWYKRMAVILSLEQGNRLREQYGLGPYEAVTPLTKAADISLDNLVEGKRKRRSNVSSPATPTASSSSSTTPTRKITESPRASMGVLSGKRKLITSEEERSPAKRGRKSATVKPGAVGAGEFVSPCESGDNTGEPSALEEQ
Excerpt: (§1) In order to identify mutations that improve the affinity of i53 for 53BP1, the bacterial adenylate cyclase two-hybrid system (BACTH system) was used to screen for interaction between the two proteins. This method makes use of a B. pertussis calmodulin-dependent adenylate cyclase toxin. The catalytic domain of the toxin can be separated into two fragments (T18 and T25) that are able to associate in the presence of calmodulin but have minimal activity in its absence. If bait and prey proteins fused to T18 and T25 interact, then the catalytic activity is restored and cAMP is produced. In E. coli, cAMP binds to catabolite activator protein (CAP) that acts as a transcriptional activator for several genes. By expressing these fusion proteins in an E. coli strain that lacks endogenous adenylate cyclase and naturally lacks calmodulin, cAMP regulated protein expression can be used as a readout of bait-prey interaction. We engineered the screen so that eGFP will be expressed under the control of a cAMP-regulated promoter. The coding sequence for a fragment of 53BP1 (a.a. 1221-1718) containing the i53 interacting regions and i53 were cloned into T18 and T25 adenylate cyclase expression plasmids such that fusion proteins of each would be expressed. If a Ubv interacts with 53BP1, the T18 and T25 fragments will be brought together, adenylate cyclase activity will be restored, cAMP will be produced, and some portion of the bacterial population will be GFP positive.
A plasmid library was made consisting of Ubv-adenylate cyclase fragment fusion protein plasmids that had on average a single codon within the i53 coding region exchanged for a random NNK codon. Plasmids were transformed into DHM1 cells that lack endogenous adenylate cyclase and contain the plasmid for expression of the 53BP1 fragment fused to one of the adenylate cyclase fragments. Expression of eGFP was used as a readout of bait-prey interaction using fluorescence activated cell sorting (FACS) to sort for GFP positive bacteria. Plasmid DNA was isolated from both the sorted GFP positive bacteria (Positive) and from the original pre-sort population (Input) and was sequenced using NGS. Counts were merged for mutations that result in the same amino acid change using Enrich2 [25]. Enrichment was calculated as enrichment=log 2((read count for an amino acid change in the positive population/read count for an amino acid change in the input)/(synonymous change read count in the positive population/synonymous change read count in the input)). […] For each experiment, DHM1 cells were transformed with the Ubv fusion protein plasmid library in two separate replicates using a gene pulser (Bio-Rad). The i53-adenylate cyclase fragment fusion protein (published i53 peptide, SEQ ID NO:2) plasmid was also introduced separately as a control to estimate selection pressure. Cells were then grown and sorted using FACS and GFP positive cells were collected. Two separate experiments were conducted on separate days using different levels of selection pressure resulting in a different percent GFP positive for the i53 population (i.e. for cells that express published i53 peptide (SEQ ID NO:2) fused to one of the adenylate cyclase fragments).
(§2) There was a high degree of correlation between the two experiments and between replicates (FIG. 2). From these screens, about 230 amino acid changes were identified for which the average enrichment was positive for at least one of the experiments (Table 1). […] To validate that the amino acid changes identified from the pooled screen are reproducible on an individual basis, 24 amino acid changes identified from this screen were introduced individually into the i53 fusion protein plasmid and tested by flow cytometry for their effect on the percent positive population relative to i53 (FIG. 3). There was a strong correlation between the enrichment measured from the pooled screen and the percent reporter positive cells when mutations were screened individually.

[2] = biological target: T1, fragment of 53BP1 (a.a. 1221-1718); assay: Individual two-hybrid screen of amino acid changes, percent GFP (reporter) positive cells by flow cytometry; type: cell-based; design: key to Dunnett's Multiple Comparison Summary: NS means not significant; *, **, ***, **** reflects qualitative measure of the strength of association the Ubv has with 53BP1 compared to the similar association of i53 with 53BP1.; *, **, ***, **** reflects qualitative measure of the strength of association the Ubv has with 53BP1 compared to the similar association of i53 with 53BP1.; *, **, ***, **** reflects qualitative measure of the strength of association the Ubv has with 53BP1 compared to the similar association of i53 with 53BP1.; *, **, ***, **** reflects qualitative measure of the strength of association the Ubv has with 53BP1 compared to the similar association of i53 with 53BP1; settings: for Dunnett's Multiple Comparison Summary: comparison i53 vs. i53 + amino acid change; for Percent GFP Positive Rep 1: replicate 1, amino acid change in i53 fusion protein plasmid; for Percent GFP Positive Rep 2: replicate 2; for Percent GFP Positive Rep 3: replicate 3
Excerpt: as §1, §2

[3] = Experiment 1 - high selection pressure
[4] = Experiment 2 - low selection pressure

Experiment 1 - high selection pressure Average Enrichment [1]: 2.28 | Experiment 1 - high selection pressure Rep 1 Enrichment [1]: 2.53 | Experiment 1 - high selection pressure Rep 2 Enrichment [1]: 2.04 | Experiment 2-low selection pressure Average Enrichment [1]: 1.28 | Experiment 2-low selection pressure Rep 1 Enrichment [1]: 0.99 | Experiment 2-low selection pressure Rep 2 Enrichment [1]: 1.58 | Dunnett's Multiple Comparison Summary [2]: *** | Percent GFP Positive Rep 1 [2]: 28.6% | Percent GFP Positive Rep 2 [2]: 23.5% | Percent GFP Positive Rep 3 [2]: 28.3%
Substance: H68M: i53 with amino acid change H68M

Rep 1 Enrichment [1, 3]: 1.10 | Rep 2 Enrichment [1, 3]: 1.02 | Average Enrichment [1, 3]: 1.06 | Rep 1 Enrichment [1, 4]: 0.75 | Rep 2 Enrichment [1, 4]: 0.59 | Average Enrichment [1, 4]: 0.67 | Dunnett's Multiple Comparison Summary [2]: ns | Percent GFP Positive Rep 1 [2]: 15.9% | Percent GFP Positive Rep 2 [2]: 17.6% | Percent GFP Positive Rep 3 [2]: 17.2%
Substance: I61L: i53 with amino acid change I61L

Rep 1 Enrichment [1, 3]: 1.72 | Rep 2 Enrichment [1, 3]: 1.48 | Average Enrichment [1, 3]: 1.60 | Rep 1 Enrichment [1, 4]: 1.23 | Rep 2 Enrichment [1, 4]: 0.57 | Average Enrichment [1, 4]: 0.90 | Dunnett's Multiple Comparison Summary [2]: ns | Percent GFP Positive Rep 1 [2]: 23.9% | Percent GFP Positive Rep 2 [2]: 16.5% | Percent GFP Positive Rep 3 [2]: 17.8%
Substance: K29M: i53 with amino acid change K29M

Rep 1 Enrichment [1, 3]: 2.08 | Rep 2 Enrichment [1, 3]: 1.93 | Average Enrichment [1, 3]: 2.01 | Rep 1 Enrichment [1, 4]: 1.40 | Rep 2 Enrichment [1, 4]: 0.39 | Average Enrichment [1, 4]: 0.89 | Dunnett's Multiple Comparison Summary [2]: ns | Percent GFP Positive Rep 1 [2]: 24.2% | Percent GFP Positive Rep 2 [2]: 11.2% | Percent GFP Positive Rep 3 [2]: 21.5%
Substance: L67K: i53 with amino acid change L67K

The next lines start with the substance.

Substance: A44T: i53 with amino acid change A44T
Rep 1 Enrichment [1, 3]: 1.70 | Rep 2 Enrichment [1, 3]: 0.87 | Average Enrichment [1, 3]: 1.28 | Rep 1 Enrichment [1, 4]: 0.75 | Rep 2 Enrichment [1, 4]: 0.59 | Average Enrichment [1, 4]: 0.67 | Dunnett's Multiple Comparison Summary [2]: ns | Percent GFP Positive Rep 1 [2]: 17.5% | Percent GFP Positive Rep 2 [2]: 7.7% | Percent GFP Positive Rep 3 [2]: 12.8%

Substance: K48T: i53 with amino acid change K48T
Rep 1 Enrichment [1, 3]: 1.20 | Rep 2 Enrichment [1, 3]: 1.08 | Average Enrichment [1, 3]: 1.14 | Rep 1 Enrichment [1, 4]: 0.84 | Rep 2 Enrichment [1, 4]: 0.66 | Average Enrichment [1, 4]: 0.75 | Dunnett's Multiple Comparison Summary [2]: ns | Percent GFP Positive Rep 1 [2]: 16.9% | Percent GFP Positive Rep 2 [2]: 14% | Percent GFP Positive Rep 3 [2]: 14.5%

Substance: L73M: i53 with amino acid change L73M
Experiment 1 - high selection pressure Average Enrichment [1]: 2.61 | Experiment 1 - high selection pressure Rep 1 Enrichment [1]: 2.69 | Experiment 1 - high selection pressure Rep 2 Enrichment [1]: 2.52 | Experiment 2-low selection pressure Average Enrichment [1]: 1.43 | Experiment 2-low selection pressure Rep 1 Enrichment [1]: 1.58 | Experiment 2-low selection pressure Rep 2 Enrichment [1]: 1.28 | Dunnett's Multiple Comparison Summary [2]: **** | Percent GFP Positive Rep 1 [2]: 36.2% | Percent GFP Positive Rep 2 [2]: 29.2% | Percent GFP Positive Rep 3 [2]: 39.5%

Substance: S49L: i53 with amino acid change S49L
Rep 1 Enrichment [1, 3]: 0.85 | Rep 2 Enrichment [1, 3]: 1.15 | Average Enrichment [1, 3]: 1.00 | Rep 1 Enrichment [1, 4]: 0.97 | Rep 2 Enrichment [1, 4]: 0.80 | Average Enrichment [1, 4]: 0.88 | Dunnett's Multiple Comparison Summary [2]: ns | Percent GFP Positive Rep 1 [2]: 18.8% | Percent GFP Positive Rep 2 [2]: 13.6% | Percent GFP Positive Rep 3 [2]: 17.7%

Substance: V26I: i53 with amino acid change V26I
Rep 1 Enrichment [1, 3]: 0.99 | Rep 2 Enrichment [1, 3]: 1.25 | Average Enrichment [1, 3]: 1.12 | Rep 1 Enrichment [1, 4]: 0.96 | Rep 2 Enrichment [1, 4]: 0.70 | Average Enrichment [1, 4]: 0.83 | Dunnett's Multiple Comparison Summary [2]: ns | Percent GFP Positive Rep 1 [2]: 20.9% | Percent GFP Positive Rep 2 [2]: 14.2% | Percent GFP Positive Rep 3 [2]: 12.3%

Substance: i53 K6R: i53 with K6R
Rep 1 Enrichment [1, 3]: 1.84 | Rep 2 Enrichment [1, 3]: 1.91 | Average Enrichment [1, 3]: 1.87 | Rep 1 Enrichment [1, 4]: 1.22 | Rep 2 Enrichment [1, 4]: 0.80 | Average Enrichment [1, 4]: 1.01 | Dunnett's Multiple Comparison Summary [2]: ** | Percent GFP Positive Rep 1 [2]: 19.8% | Percent GFP Positive Rep 2 [2]: 27% | Percent GFP Positive Rep 3 [2]: 24%
